# Assay results from a protein production outcome set (Wang et al. 2014).
# Assay: label from the status in PepcDB records
# 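Also: failed if final PepcDB status was selected cloned or expressed and not failed if soluble or beyond.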
row,Sequence,protein production
1,MKRKLLAILLSVSMIATLVTACGSKEVSDNSAKEEGVTVEDVKAALKDENAVVLDARTQDAYAGWSTENNKLGGHIESSSGFSAAWLTCEYDDEANDDNRTREERLEICMEDKGITADTKVIIYDENGKDAAAVSEYLSGKGVKDIETFNLADWDGELVKYENYQTILPPSIVKKLIDGETVEEVGEVKDLKVLEFSWGTEEESGYLEGHVPTAIHINSDDVDDENNIYVLDKDEILLETVKKAGVTVDSTVVVTGAGLFSCHLATILKYLGVEDVYIMSGGANGWTDAGYEAEKGSNTPVAVEDFGTDKPLNPDYIDDVEEVSLLLTDKNAQVIDTRAYKEFTGESSGYSYVEEAGRLNGAIFGQEDGSAQGPDCTGSSMMYYENIDGTMRDASEILEMWSNSNVDVNKHLSFYCGGGYRAAAVMWYAQAMGLEDTSLYNDGWAGWIVYGKDAVKGTYEDPQPVN,failed
2,MKRKMENMKYTMSYIAKNFRVALMLSLMMLLCSCSSEDKLELHKGATLPIMQGIADNVPYIQSVEKELTYDLYDGVRITDVIFTYCAKPTRMIIAEVDLNKNVTIVTSTPDNKPEVGKILQQVTVQAEKAEAAGRKVILGTNGDFYSKKNDLWIPGGLFYKDGVAIKTEIGWEADHVFYMLKDGTAHITSVPEFKLVEREVVHAIGGWQRMVQDGEVVKNFTVNDNAMQFHPRTFVGVSADNRKVYLFVVDGRQPEYSNGMRLEDMMLLCQGAGCYQAFNMDGGGSTTMVRRVEKGSSVSFEVMNQPSDNPARSVINGLQVIEKTN,failed
3,MKRKSIFLTFGLLVLSWIGCVENDLPYPTIVGQITEMEVAGMTSCRILGASNTVEIKVADTIDLRDLRVEKLVVTEGMKVYPDSAACLDIAHFPDTGFVSADSLPAGMDTRMNFLNPVKFRLSLYQDYDWTVNVSRDIVRKIKIKNQVGSALIDDYTKNVIVYVDSTEQPSLRNIEIEELQLGSSIAQTTPDPSKVVDFTRPRVFYVTAFDETEEWTLSVQYPNANVQLTQLSAWTRRAYVSGSISKGEVEAEYRKAGETVWESVLPNEISYEGEDFLIMMTHLAAGTNYEYRLTMNGTVGEILTFTTDTIMQVPNLGFDDWVMKNEKTWYPNATLDDADHFWDSGNEGASIASRNPTAPETGDVVKGRAVRMASDYISIASKFAAGNIYTGDFVGLAGIEGAELDFGQPYTGRPSALKGYYRYTPGVIDQAKAPYDALMGQTDSCHIYIGLFDWSAPFRVNTTTGTFVDLTWNNESMIAFGELKSNEATGSEYKQFKINLTYRDYFTHPKYILIVASASKYGDYFTGSTSSVMYLDECELVFE,failed
4,MKRKTAVKWLAVLAGAGLLYWGNKTYLNVSPKEIRVWVLSFGVFAPLMFIGISIVRPLVLFPVSVISIAGGLAFGPLLGTLYTLFGSMCASAVSFFAAGLFSAKKNGHYERLEAIQKQMEDNGFFYIFLLRILPINFDFVSYAAGLSNVKALPYFAATAVGIIPGTIALNVLGASFLAGNLPAFFMVLALYIVFISLPFIFRKKMQNLFQESN,failed
5,MKRKVQVKNITIGEGRPKICVPIIGKNKKDIIKEAKELKDACLDIIEWRVDFFENVENIKEVKEVLYELRSYIHDIPLLFTFRSVVEGGEKLISRDYYTTLNKEISNTGLVDLIDVELFMGDEVIDEVVNFAHKKEVKVIISNHDFNKTPKKEEIVSRLCRMQELGADLPKIAVMPQNEKDVLVLLEATNEMFKIYADRPIITMSMSGMGVISRLCGEIFGSALTFGAAKSVSAPGQISFKELNSVLNLLHKSIN,not failed
6,MKRKYFPFSAILGQEDLKKALLLNAVNPRIGGVLVRGEKGTAKSTAVRALGALLAAARNGSGGEGEVVVTLPLNATEEMVAGGIDFQQTMKEGRRVFQPGLLAKAHKGILYVDEVNLLDDHLVDIVLDAASSGENRVEREGITLSHPSLFVLAGTMNPEEGELRPQLLDRFGLCVEVRGEADPALRVDLMLRREAFDREPEEFSERYRAEEERLGRTIADAQSLLPSVRIPSHLRGFISELCRNSNVAGHRADLVIEQAARANAALRGSREVSVEDVTKVAGFALVHRRRDPVPPPEQKPQEPERQEEQSRDEQSRQEKPEERGDEPQQPQEGDDRRDGNDDSGNEERSQPENRDAAEQQERPDNEGQDELFSIGQSFRVRSIATPKDRKMRRGSGKRSRSRVSQKQGRYTKSTMPRGNNDIALDATLRAAAPFQRHRENPNGMAVVLQNEDIREKIREKRLGNLLIFVVDASGSMGARGRMAASKGAVMSLLLDAYQKRDKLAMVSFRKNEAFVNLPVTSSIELAARMLKEMPVGGRTPFSAGLLKGYEIAQNYLRKEPGGRPLIILVTDGKANRAIGQGKPLDEVFTISEKISREERIRFLVVDTEEPGLVTFGLAKKIAGLLDAWYYRIDDLRADTLVSIVKTMMP,failed
7,MKRVALIHGWGGSFAATWEADGWSDALRAAGFDPVGVTIAGHGPEGGSHDPADYADLAGDLAAKLPAGLHGAIGFSLGTKLLLELEARSPGRNGRLVLGGIGDNLFAPEAAGPALVAALRGEATTPPPQVAALLAYAEKSASDPACLAAILERPANPVLTEDRLATAQAPILIFNSRDDAVAQPDTRLCRAMPHASHRLIEGPGHVALTSDARFREAAVEFLSK,failed
8,MKRVANWLAITGFVVHAISLVAGLQGHTWETISKGYFLQMLSWSMLLIYLFVWWKFKLDFLSALASPFALLIYLSSFKVAEVQSKLPESLSGLFFGLHIGTLFLSFGLMAMAFGAGVLFLHMERKIKTKEPLTGFRKDLPALSTFDRVNRLCVVWGFPLFTLGIVSGFVWAHPAWGKVITWDPKEIVSLAVWVMYALLFHQRVALGWQGRKPAVMVIWIFAVSVFSLIVVNVFMPTHHSFIQQ,failed
9,MKRYQGRIIATVLAMTFIMFWNFLFYGVLGNKINWTVDLLFTLVTLISVWWLTLYIDESNQLVYKLKESEKKYKELSSETNRIMDNLQEIVFQTDRIGYITFLNQAWTTLTGYSVEESLGTMYNDYFDHEERISNHLIAQLKNKEPEGRIEVLYHRKDGSKFWGEVHYKLYYKNGQFTGSLGTLTDVTERKKAEMELFKSNQRLAMQSQKLAMAGQLAAGIAHEVRNPLTSVNGFLQLMKAEYPDRKDYFDIIFSEIKRIDSVLGELLVLAKPHQVQFKKIKINSVLQQVATLLETNAVLSHIKIEKAFQHGEEWEINGDENQIKQVFINLIKNGIEAMPDGGKITISSKAEGDCVKISIKDEGGGISQADLAKLGEPFFSTKEEGTGLGLTICLNIIGAHNGEMKIDSKLGEGSTFHILLPVDKGAASEENDIQQGCCSRATIK,failed
10,MKSADQLMSDIQLSLQALFQKIQPEMLESMEKQGVTPAQLFVLASLKKHGSLKVSEIAERMEVKPSAVTLMADRLEQKNLIARTHNTKDRRVIDLSLTDEGDIKFEEVLAGRKAIMARYLSFLTEEEMLQAAHITAKLAQAAETDEKQNMKRGNG,not failed
11,MKSALSDFILGKKGIYGILHIIILLMSLFLVISISIDTFKGIPFYTQSSYMKIQLWICIWFLFDFVLEFFLAKHKWRYIRTHFIFLLVAIPYQNIIAYYGWTFSPEVTYLLRFIPLLRGGYALAIVVGWLTYNRASSLFVSYLTMLLATVYFASLAFFVLEHKVNPLVTDYGDALWWAFMDVTTVGSNIIAMTTTGRVLSVLLAALGMMMFPIFTVYITNLIQQSNQKKKQYYAEEEEKTASA,failed
12,MKSDYELSLRDYIAIIKDRALVLGVSAAVILAATVAVALMVPPIYQSTGTILVESQQISPELVSTNNTSFADERIEVIRQRVMTRDNLLRIIGKYDLFADKRFSESDKIDQMRNAIVVETLTTYVRGRGEATVAFNVSFEHKQPQVAKEVADELVTLFLNENLKQRTERANETTEFLTQEANKLGAELASLENQLADFKQAHANALPEHQTLRMNMLSRAELEFREVDRDYKAAQEELRYLELELSAANAGLATKVAEGTRPTRADLPEDLPSLKAEYAQLLTRYKDAHPDVVAVKRKIQALEASGGRTAAVSTVSLDAARVRAKMSAAQVRIASLAEQKRELTRKMEGYEAEILEAPQVERGLVTLMRDHDNARKKYEEIRAKEMGAKITESLEQENKAERFVLLEPPLLPEKPIKPNRKKIAALGLVLAPAGGGALVMLLEMLNQRVRGVGALESLLGKRVLVALPYIDTRADVARRKRWRNRLILAALALAAIMIGLVHVFYMPLDVLL,failed
13,MKSENVNKRDEYQRVFSCFDKSHQGKVSVSTIERCVDAIKSGKRAVVDQEDTTNPNPEESTDDKSLELEDFVKLVEEGEEADKEKDLKEAFKLYEESEGITPKSLKRMLSLLGESKSLKDCEVMISQFDINRDGIINFDEFRAMMQ,failed
14,MKSKGRNRLLSLIICICIAFAFSSCVKNDLPYPVVRLSITGFEVNGQIGSAVINNEERTVTVDLLDSVDLKKVIVTRFDYSEEANTDLKVNTTIDLSSPKEVVLSLYQDYRWKIIANQTVERVFSVKNQVGGAVIDEKARQAIVYVNKNTMLNKITVKDLKLGPISSTVSPDFITLKDFTQEQKVNVTFKGKTEEWSLYAFITDKVVFTNSADGWTNVAWLYGEGQEDVVNGFEIREASSEEWTRVDQDIVVQNGVNFYVCVPHLKADTEYVCRALVDGTEDRGEEITFRTTAAIPLTGGTFDNWNQSGKVWNPWGSNETPFWDTGNQGATTLGDSNSVPTEDIWSGKTTGMAAKLESKFVGVGSAGKLAAGNLFVGKYVATDGTNGILNFGQSFSAYPTHLKGYYKYQPGVIDNSSIEYNYLKGRTDTCSIYIAIGDWDSPIEIRTKPSNRKLFDKNDKHVIAYAEFTSGTPVAVYKEFDLKLEYRATNRKPTYIVLVCSASKYGDFFTGASGSVLYVDEFSLEYDYDN,failed
15,MKSLTPHLLLCSFFTSIAPALGEGFRNKRVAFIPTAAAHEEYTAYVDSARSSWKELGSNITDVDIARMPLRTATEALEQAEIIYLSGGNSFYLLDCLRSTEIDQIIRGRLAEGAILVGESAGAIVCSPNIAYIQPMDRVPDNYSQADYTGLNLVDFFPVPHYLAPPFVKSSKEVVAQHASLPLELMNNAEAVIVEGPQRTKISSEHQ,failed
16,MKSPFYRCQNTTSVEKGNSAVMGGVLFSTGLLGNLLALGLLARSGLGWCSRRPLRPLPSVFYMLVCGLTVTDLLGKCLLSPVVLAAYAQNRSLRVLAPALDNSLCQAFAFFMSFFGLSSTLQLLAMALECWLSLGHPFFYRRHITLRLGALVAPVVSAFSLAFCALPFMGFGKFVQYCPGTWCFIQMVHEEGSLSVLGYSVLYSSLMALLVLATVLCNLGAMRNLYAMHRRLQRHPRSCTRDCAEPRADGREASPQPLEELDHLLLLALMTVLFTMCSLPVIYRAYYGAFKDVKEKNRTSEEAEDLRALRFLSVISIVDPWIFIIFRSPVFRIFFHKIFIRPLRYRSRCSNSTNMESSL,failed
17,MKSQFLLSVKEHMLTRYYANKTIESYLFWIKRFIVFHQFAHPSKLSEDDVIRFLSHLAIDEKVAVKTQALALNAISFLYRDFFKTPLSLDMRFQKSLTEKKLPVVLTRDEVRRFV,failed
18,MKTAELIFVPLPETGHLLSTIEFGKRLLNLDRRISMITILSMNLPYAPHADASLASLTASEPGIRIISLPEIHDPPPIKLLDTSSETYILDFIHKNIPCLRKTIQDLVSSSSSSGGGSSHVAGLILDFFCVGLIDIGREVNLPSYIFMTSNFGFLGVLQYLPERQRLTPSEFDESSGEEELHIPAFVNRVPAKVLPPGVFDKLSYGSLVKIGERLHEAKGILVNSFTQVEPYAAEHFSQGRDYPHVYPVGPVLNLTGRTNPGLASAQYKEMMKWLDEQPDSSVLFLCFGSMGVFPAPQITEIAHALELIGCRFIWAIRTNMAGDGDPQEPLPEGFVDRTMGRGIVCSWAPQVDILAHKATGGFVSHCGWNSVQESLWYGVPIATWPMYAEQQLNAFEMVKELGLAVEIRLDYVADGDRVTLEIVSADEIATAVRSLMDSDNPVRKKVIEKSSVARKAVGDGGSSTVATCNFIKDILGDHF,failed
19,MKTDIILAGVGGQGILSIAAAIGSAALTNNLYLKQAETHGMSQRGGDVQSFLRLSDAPIYSDLIPIGGADLILSVEPMEALRYLPYLKPDGYVVTNTVPFINIPNYPETTSVISKIESLPHHVLIDADSIARDEVGNVRASNFVMLGAASPFIEIPFDYLAGGIEAIFSRKGQEVVDMNLKALNAGREFALRYAAGK,not failed
